From patent publication US6897017

How the values were obtained:
Assay in all cases: cell-based or functional assay
[1] = target: WinZip-B1-DHFR[2:I114A] (murine) (UniProt P00375)
[2] = target: WinZip-B2 fused to DHFR[2:I114A] (clone of LibB-DHFR[2:I114A]) (murine) (UniProt P00375)
[3] = target: GCN4-DHFR[2:I114A] (murine)

Frequency of dominant pair at P12, competition selection (I114A) [1] [%] | Selection factor, competition selection (I114A) [1] | frequency of the pair among colonies sequenced at P10 [1] [%] | Frequency of dominant pair at P12, shuffling WinZip-A1 + LibB-DHFR[2:I114A] [2] [%] | Selection factor, shuffling WinZip-A1 + LibB-DHFR[2:I114A] [2] | frequency of the pair among clones sequenced at P10 [2] | GCN4 zippers among sequences from passage 9 of model competition selection (of 24 sequences) [3] | Substance
82 | 3.2e+06 | 33 | 67 | 87000 | 3 of 5 clones | – | WinZip-A1-DHFR[1] (from UniProt P00375 1-107) (designed binder)
– | – | – | – | – | – | 0 | GCN4-DHFR[1] (from UniProt P03069 253-274; P00375 1-107)
